The supplement of paper PMC7877785
± gives the uncertainty stated by the source.

Assay: self-splicing fitness, log relative to wild type (ln ratio); higher = more splicing; Tetrahymena group I intron in knt gene, E. coli kanamycin selection, DiMSum; sequences stand for … in CUCUCU…GGAGGGAAAAGUUAUCAGGCAUGCACCUGGUAGCUAGUCUUUAAACCAAUAGAUUGCAUCGGUUUAAAAGGCAAGACCGUCAAAUUGCGGGAAAGGGGUCAACAGCCGUUCAGUACCAAGUCUCAGGGGAAACUUUGAGAUGGCCUUGCAAAGGGUAUGGUAAUAAGCUGACGGACAUGGUCCUAACCACGCAGCCAAGUCCUAAGUCAACAGAUCUUCUGUUGAUAUGGAUGCAGUUCACAGACUAAAUGUCGGUCGGGGAAGAUGUAUUCUUCUCAUAAGAUAUAGUCGGACCUCUCCUUAAUGGGAGCUAGCGGAUGAAGUGAUGCAACACUGGAGCCGCUGGGAACUAAUUUGUAUGCGAAAGUAUAUUGAUUAGUUUUGGAGUACUCGUGGUCG
How it was run: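 The eight P1ex-region nucleotides of an intron in the knt kanamycin-resistance gene on pET-22b(+) were all randomised and the library put into E. coli BL21(DE3). Six replicate transformations were grown overnight at 37°C or 30°C on LB agar with or without 25 μg/mL kanamycin, together with 100 μg/mL carbenicillin, 50 μM IPTG and 0.2% rhamnose. Colonies were pooled and amplicon-sequenced on an Illumina HiSeq 2500. Fitness from DiMSum is the error-weighted combination of wild-type-normalised replicate fold changes, kanamycin over none.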

Row | Sequence | self-splicing fitness (ln) (30 °C) | self-splicing fitness (ln) (37 °C)
1 | CUGGAGCAAUAUUACGAGGC | -2.02 ± 0.4 | -0.672 ± 0.47
2 | CUGGAGCAAUAUUACGAGGG | -2.67 ± 0.24 | -2.08 ± 0.34
3 | CUGGAGCAAUAUUACGAUUA | -2.56 ± 0.27 | -1.07 ± 0.26
4 | CUGGAGCAAUAUUACGCAGG | -3.11 ± 0.23 | -2.36 ± 0.2
5 | CUGGAGCAAUAUUACGCCUC | – | -1.07 ± 0.47
6 | CUGGAGCAAUAUUACGCGAG | -3.24 ± 0.23 | -2.47 ± 0.26
7 | CUGGAGCAAUAUUACGCGCU | -3.54 ± 0.47 | –
8 | CUGGAGCAAUAUUACGCGUG | -3.27 ± 0.15 | 0.32 ± 0.12
9 | CUGGAGCAAUAUUACGCUGU | – | -3.04 ± 0.48
10 | CUGGAGCAAUAUUACGGAGG | – | -2.18 ± 0.36
11 | CUGGAGCAAUAUUACGGCAG | -2.77 ± 0.15 | -1.94 ± 0.16
12 | CUGGAGCAAUAUUACGGCCU | -2.88 ± 0.38 | -1.85 ± 0.3
13 | CUGGAGCAAUAUUACGGGCG | -1.16 ± 0.12 | -0.434 ± 0.12
14 | CUGGAGCAAUAUUACGGUGG | -3.55 ± 0.14 | -1.93 ± 0.12
15 | CUGGAGCAAUAUUACGGUGU | -4.16 ± 0.36 | -2.02 ± 0.2
16 | CUGGAGCAAUAUUACGUACG | -0.531 ± 0.089 | 0.504 ± 0.12
17 | CUGGAGCAAUAUUACGUCAC | -2.63 ± 0.39 | -2.53 ± 0.39
18 | CUGGAGCAAUAUUACGUGAA | -3.42 ± 0.22 | -2.01 ± 0.16
19 | CUGUAGCAAUAUUACGAAUA | -2.54 ± 0.37 | -2.82 ± 0.48
20 | CUGUAGCAAUAUUACGACCG | -0.99 ± 0.34 | 0.0218 ± 0.25
21 | CUGUAGCAAUAUUACGAGUG | -0.807 ± 0.07 | 0.314 ± 0.11
22 | CUGUAGCAAUAUUACGAUCG | 0.206 ± 0.16 | 0.548 ± 0.21
23 | CUGUAGCAAUAUUACGAUGC | -2.62 ± 0.17 | –
24 | CUGUAGCAAUAUUACGCAUG | -1.06 ± 0.1 | -0.55 ± 0.13
25 | CUGUAGCAAUAUUACGCGCA | -2.23 ± 0.39 | -2.52 ± 0.41

Row | Sequence | self-splicing fitness (ln) (30 °C) | self-splicing fitness (ln) (37 °C)
26 | CUGUAGCAAUAUUACGCGUG | -1.41 ± 0.1 | -0.0484 ± 0.12
27 | CUGUAGCAAUAUUACGCUAU | – | -0.73 ± 0.29
28 | CUGUAGCAAUAUUACGCUGU | -3.78 ± 0.36 | -2.53 ± 0.27
29 | CUGUAGCAAUAUUACGGAGA | -2.5 ± 0.21 | -3.56 ± 0.34
30 | CUGUAGCAAUAUUACGGAGC | – | -2.55 ± 0.49
31 | CUGUAGCAAUAUUACGGCAG | -3.85 ± 0.33 | -1.32 ± 0.24
32 | CUGUAGCAAUAUUACGGCUC | -2.55 ± 0.19 | -2.13 ± 0.29
33 | CUGUAGCAAUAUUACGGGAG | -4.83 ± 0.29 | -1.67 ± 0.13
34 | CUGUAGCAAUAUUACGGGGC | -4.95 ± 0.36 | -2.14 ± 0.19
35 | CUGUAGCAAUAUUACGGUAA | -3.63 ± 0.24 | -2.3 ± 0.26
36 | CUGUAGCAAUAUUACGGUCA | -2.29 ± 0.25 | -2.63 ± 0.34
37 | CUGUAGCAAUAUUACGUAAC | -3.09 ± 0.46 | -2.24 ± 0.5
38 | CUGUAGCAAUAUUACGUGCC | -3.49 ± 0.35 | -2.21 ± 0.24
39 | CUGUAGCAAUAUUACGUGUA | -4.12 ± 0.3 | -2.05 ± 0.21
40 | CUGUAGCAAUAUUACGUUUU | -4.23 ± 0.35 | -2.23 ± 0.19
41 | CUUAAGCAAUAUUACGAGAA | -2.01 ± 0.34 | -2.91 ± 0.47
42 | CUUAAGCAAUAUUACGAUAU | -3.29 ± 0.2 | -1.4 ± 0.17
43 | CUUAAGCAAUAUUACGCAGG | -3.05 ± 0.21 | -2.96 ± 0.32
44 | CUUAAGCAAUAUUACGCAGU | -3.71 ± 0.46 | -2.56 ± 0.28
45 | CUUAAGCAAUAUUACGCCCG | -1.46 ± 0.28 | 0.386 ± 0.3
46 | CUUAAGCAAUAUUACGGCAU | -3.68 ± 0.23 | -3.67 ± 0.34
47 | CUUAAGCAAUAUUACGGGAC | -3.6 ± 0.28 | -1.26 ± 0.13
48 | CUUAAGCAAUAUUACGGGGC | -3.68 ± 0.2 | -2.63 ± 0.21
49 | CUUAAGCAAUAUUACGGUCG | 0.0331 ± 0.082 | 0.0238 ± 0.093
50 | CUUAAGCAAUAUUACGUCAA | -3.38 ± 0.35 | -2.33 ± 0.21
